Reference: patent US20200009190A1

Molecular target: CD200 expressed on FBL leukemia cells transduced with CD200 (CD200+ FBL) (UniProt O54901)
Experiment: cell-based or functional assay

Chain of CD200 expressed on FBL leukemia cells transduced with CD200 (CD200+ FBL) (O54901 31-278 limits assumed): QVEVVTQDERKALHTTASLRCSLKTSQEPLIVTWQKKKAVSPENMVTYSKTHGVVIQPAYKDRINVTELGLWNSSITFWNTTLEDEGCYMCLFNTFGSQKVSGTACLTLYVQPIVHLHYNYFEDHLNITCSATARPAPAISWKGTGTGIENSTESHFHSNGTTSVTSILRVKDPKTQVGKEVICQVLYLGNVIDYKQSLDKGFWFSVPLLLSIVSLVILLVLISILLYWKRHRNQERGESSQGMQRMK

“CD200R-9aas-CD28Cys (murine construct V) (from UniProt Q9ES57 26-229; P31041 142-218)” was tested, and the accumulation of transduced T cells over multiple cycles of stimulation with irradiated CD200+ FBL was 3 fold, the fold enrichment, stimulation 3/stimulation 1 was 3 fold and the lysis of CD200+ FBL (CFSE-based cytotoxicity assay) was 40%. It also gave a percentage of cytokine non-producing cells (flow cytometry) of 27% and a percentage of polyfunctional cells producing all 3 cytokines (IFNγ, IL-2, TNFα) of 22%.
